Reference: patent US6780971B2, “Compositions for inhibiting the aggregation pathway of α-synuclein” (Panacea Pharmaceuticals, Inc., priority 2000, dated 2004)

Columns and labels:
[1] = target: T1, α-synuclein (Homo sapiens, UniProt P37840); assay: Tyrosine fluorescence assay of metal binding to α-synuclein; details: wildtype α-synuclein
T1 construct: His-6 (cleaved yes); made in house; host or cells: bacteria (IPTG-induced; Pro-Ex His 6 vector)
Procedure: (§1) Because iron binds to other proteins that form aggregates and iron is known to accumulate in Parkinson's disease, iron might bind directly to α-synuclein. To confirm this hypothesis, the interaction of iron with α-synuclein was tested using tyrosine fluorescence as an indicator of iron binding. […] Fluorescence of tyrosine has been used to monitor binding of metals to β-amyloid [Garzon-Rodriguez W. et al., Bioorg. Med. Chem. Let., 9:2243-2248 (1999), which is hereby incorporated by reference]. A similar approach was taken to analyze binding of iron to α-synuclein. Tyrosine has a fluorescence emission spectrum that has a peak emission of 310 nm when excited at 280 nm, respectively (FIG. 2A). It was observed that binding of iron reduced the fluorescence of the tyrosines in α-synuclein. […] The Hill coefficient was 1.0 (R^2=1.0, P<0.0001), indicating one binding site for iron with no cooperativity (FIGS. 2A & B). α-Synuclein was also tested for binding to other metals, including CuCl2, ZnCl2 and MgCl2. Because the C-terminus of α-synuclein has a region with 7 glutamates and 4 aspartates, which together could chelate iron, we created a deletion construct lacking the last 27 amino acids on α-synuclein and analyzed binding of this construct.
To monitor the binding profiles of Fe(II) and Mg(II) to α-synuclein in vitro we used changes of tyrosine fluorescence. Tyrosine fluorescence is used as an indicator of changes in protein conformation or binding of metals. Excitation of tyrosine at 280 nm elicits fluorescence that peaks at 310 nm for monomeric tyrosine, and at 350-400 nm for tyrosinate or dimeric tyrosine. The fluorescence spectrum of α-synuclein yielded fluorescence peaks at 310 and 400 nm. The peak at 400 nm cannot be explained by the presence of dimeric tyrosine, due to dimerization of α-synuclein, because dimerization of α-synuclein decreases the fluorescence at 400 nm, and tends to eliminate the peak at 400 nm.

[2] = target: T2, α-synuclein ΔC1-113 (Homo sapiens, UniProt P37840); assay: Tyrosine fluorescence assay of iron binding to C-terminal deletion construct
T2 construct: made in house
Procedure: as §1

[3] = system: BE-M17 neuroblastoma cells; assay: Iron-induced α-synuclein aggregation in BE-M17 cell lines (fractionation, immunoblot); format: cell-based, human; details: for formation of large α-synuclein aggregates migrating in the stacking gel: cells over-expressing A30P or wild type α-synuclein, 48 hrs, 10 mM FeCl2 and/or 5-500 μM dopamine
Procedure: Immunoblotting: Cells were harvested with SDS lysis solution (2% SDS, 10 mM Tris, pH 7.4, 2 mM β-glycerol phosphate, 1 μM AEBSF). The amount of protein was determined using the BCA assay (Pierce), […] per lane was run on 14% SDS polyacrylamide gels and transferred to nitrocellulose (200 mAmp, 12 hrs). The nitrocellulose was then incubated 1 hr in 5% milk/PBS, washed, incubated overnight in 1° antibody, washed, then incubated 3 hrs in peroxidase coupled 2° antibody and developed with chemiluminescent reagent (NEN).
Cell fractionation: For cell fractionation the cells were harvested in buffer containing 20 mM Tris, pH 7.4, 2 mM EDTA, 0.25 M sucrose, and 20 μg/mL protease inhibitor cocktail (Sigma). The cell lysate was sonicated and centrifuged at 100,000×g at 4° C. for 1 hr.
To test whether A53T and A30P mutations in α-synuclein increase the tendency of α-synuclein to aggregate in neurons, α-synuclein aggregation was determined in human BE-M17 neuroblastoma cells that were stably transfected with wild type, A53T or A30P α-synuclein. Each cell line was treated for 48 hours with freshly prepared FeCl2 (1 or 10 mM), then harvested, homogenized and fractionated into membrane and cytoplasmic components. The membrane (5 μg/lane) and cytoplasmic (20 μg/lane) components were immunoblotted with monoclonal anti-α-synuclein antibody.
To determine the effect of increasing the duration of exposure to iron on aggregation of α-synuclein at lower doses of iron, BE-M17 cells which are over-expressing A53T or wildtype α-synuclein were exposed to FeCl2 for 4 days. Under these conditions, doses as low as 0.3 μM FeCl2 produced detectable aggregation of α-synuclein in cells expressing A53T α-synuclein.
Neurol. 57:793-796 (2000)]. If so, adding free radical generators, such as hydrogen peroxide or dopamine, along with the iron might increase the amount of α-synuclein aggregation. To further determine that oxidation enhanced iron-induced aggregation of α-synuclein, BE-M17 cells over-expressing A30P or wildtype α-synuclein were treated for 48 hrs with 10 mM FeCl2 plus varying concentrations of dopamine (0.5, 50, and 500 μM).

[4] = target: T3, A53T α-synuclein (Homo sapiens, UniProt P37840, A53T); assay: Tyrosine fluorescence assay of metal binding to A53T α-synuclein
T3 construct: His-6 (cleaved yes); made in house; host or cells: bacteria (IPTG-induced; Pro-Ex His 6 vector)
Source text: We also examined how the A53T mutation in human α-synuclein affected binding of iron and magnesium. […] Previous studies have shown that A53T mutation changes the conformation of α-synuclein by increasing its helical content (Polymeropoulos et al., Science, 276:2045-7(1997)). These conformational changes might also reduce binding of magnesium to α-synuclein.

[5] = system: BE-M17 cells over-expressing α-synuclein; assay: Iron-mediated toxicity in BE-M17 cell lines, MTT assay; format: cell-based; details: for reduction of LD50 by α-synuclein over-expression: 48 hrs
Procedure: To determine if the conditions that produce α-synuclein aggregation also produce toxicity, the vulnerability of each cell line to iron and/or hydrogen peroxide-mediated toxicity was tested. Each cell line (untransfected, wild type, A53T and A30P a-synuclein) was treated with varying doses of FeCl2, H2O2 or FeCl2+H2O2 and the amount of toxicity was determined by MTT assay. […] Over-expression of A30P or wild type α-synuclein constructs reduced the LD50 values by ˜50%, although the amount of toxicity seen in A30P-expressing cells in response to low levels of iron was generally greater than toxicity seen with wildtype α-synuclein (FIG. 1A). To confirm that over-expression of α-synuclein increased the vulnerability of the neuroblastoma cells to iron, iron-induced toxicity was tested using a LDH assay (FIG. 1B). The LDH assay confirmed that over-expression of the α-synuclein constructs increases iron-induced toxicity (FIG. 1B).

[6] = target: T4, C-terminal (approx. amino acids 113-140) of α-synuclein (Homo sapiens, UniProt P37840); assay: Phage display selection for binding to C-terminal portion of α-synuclein; details: for binding to the C-terminal portion of α-synuclein: phage display
T4 construct: The peptides were selected using the α-synuclein 121-131 and 61-87 peptides as the bait
Source text: (§2) Such peptides can be found, for instance, by using phage display to select for those phage expressing a peptide on their surface that binds to α-synuclein, and determining what the peptide is. The inhibitory effect of that peptide, or any peptide for that matter, can also be tested to determine its usefulness as an agent for treating a Lewy body disease or synucleinopathy by using assays such as those disclosed herein or as disclosed in U.S. Pat. No. 6,184,351, which is incorporated herein by reference. Such peptides have been selected for their ability to bind to the C-terminal (approx. amino acids 113-140), and the NAC portion (approx. amino acids 61-87) of α-synuclein, because this region is thought to be involved with the aggregation process. Several peptides that bind to the C-terminal portion are as follows (all peptides are given in […] order): (1) WRQTRKD (SEQ ID NO: 1); (2) HYAKNPI (SEQ ID NO: 2); (3) ATINKSL (SEQ ID NO: 3); (4) RRRGMAI (SEQ ID NO: 4); (5) THRLPSR (SEQ ID NO: 5); and (6) TKHGPRK (SEQ ID NO: 6). Several peptides that bind to the NAC portion are: (1) SLKRLPK (SEQ ID NO: 7); (2) RLRGRNQ (SEQ ID NO: 8); (3) WPFHHHR (SEQ ID NO: 9); (4) HLYHHKT (SEQ ID NO: 10); (5) THIHHPS (SEQ ID NO: 11); and (6) MMMMMRL (SEQ ID NO: 12). […] Most preferred is the peptide SLKRLPK (SEQ ID NO: 7).
(§3) Phage display: Incubating a library of phage that is all identical except for a sequence of 7 amino acids that are presented on the coat and randomly differ from phage to phage. Phage which express a sequence that specifically binds to α-synuclein are then isolated, cloned, and the DNA sequenced to determined the amino acid sequence. The 7 amino acid peptide is then synthesized and tested directly.
(§4) Phage display (phage display kit was from New England Biolabs (Beverly, Mass.)) was used to specifically select for peptides that can inhibit iron binding. […] The peptides were selected using the α-synuclein 121-131 and 61-87 peptides as the bait. One such peptide has the sequence SLKRLPK (SEQ ID NO: 7).

[7] = target: T5, NAC portion (approx. amino acids 61-87) of α-synuclein (Homo sapiens, UniProt P37840); assay: Phage display selection for binding to NAC portion of α-synuclein; details: for binding to the NAC portion of α-synuclein: phage display; for relative binding properties: NAC portion binders
T5 construct: The peptides were selected using the α-synuclein 121-131 and 61-87 peptides as the bait
Source text: as §2, §3, §4

[8] = target: T1, α-synuclein; assay: Phage ELISA binding to α-synuclein absorbed to plastic well
Procedure: Bound phage was detected by adding peroxidase coupled anti-phage antibody, incubating 1 hr, washing 5 times and detecting signal using the peroxidase substrate ABTS. Bound phage produces a dark green signal that is measured as optical density with a spectrophotometer. Using these conditions, the phage containing the SLKRLPK (SEQ ID NO: 7) peptide gave OD's of 0.882, 0.844, and 0.480 at dilutions of 1:10, 1:100, and 1:1000, respectively.

Compound: [Cl][Fe][Cl] [FeCl2]
- Hill coefficient of iron binding curve [1]: 1.0
- IC50 ([1]; excitation 280 nm, sigmoidal fit, read-out: IC50 of quenching of α-synuclein tyrosine fluorescence (iron binding)): 173 µM
- IC50 ([2]; construct lacking the last 27 amino acids): 726 µM
- reduction in iron binding versus wildtype ([2]; ΔC1-113 versus wildtype α-synuclein): > 4 fold
- α-synuclein aggregate formation ([3]; A53T-expressing cell line, 1 or 10 mM, 48 hours, membrane fraction): induced dose-dependent formation of heterogeneous high molecular weight α-synuclein aggregates
- lowest dose producing detectable aggregation of α-synuclein ([3]; cells expressing A53T α-synuclein, 4 days): 0.3 µM
- formation of large α-synuclein aggregates migrating in the stacking gel [3]: did not induce any aggregation
- α-synuclein aggregate formation ([3]; untransfected, wildtype and A30P cell lines, 48 hr): did not induce α-synuclein aggregates
- effect of A53T mutation on binding to α-synuclein [4]: did not change the apparent affinity
- increase in vulnerability to induced toxicity in cells over-expressing α-synuclein [5]: ≤ 4 fold
- reduction of LD50 by α-synuclein over-expression ([5]; A30P or wild type α-synuclein over-expressing cells versus untransfected): ~50%
- reduction of LD50 by α-synuclein over-expression ([5]; A53T α-synuclein over-expressing cells versus untransfected): over 75%

Compound: NCCc1ccc(O)c(O)c1 [dopamine]
- formation of large α-synuclein aggregates migrating in the stacking gel [3]: did not induce formation of large α-synuclein aggregates

Compound: ATINKSL (listed as Homo sapiens)
- binding to the C-terminal portion of α-synuclein [6]: bind

Compound: HLYHHKT (listed as Homo sapiens)
- binding to the NAC portion of α-synuclein [7]: bind

Compound: HYAKNPI (listed as Homo sapiens)
- binding to the C-terminal portion of α-synuclein [6]: bind

Compound: MMMMMRL (listed as Homo sapiens)
- relative binding properties [7]: stronger binding properties
- binding to the NAC portion of α-synuclein [7]: bind

Compound: RLRGRNQ (listed as Homo sapiens)
- binding to the NAC portion of α-synuclein [7]: bind

Compound: RRRGMAI (listed as Homo sapiens)
- binding to the C-terminal portion of α-synuclein [6]: bind

Compound: SLKRLPK (listed as Homo sapiens)
- relative binding properties [7]: stronger binding properties
- binding to the NAC portion of α-synuclein [7]: bind
- OD of bound phage ([8]; phage dilution 1:10): 0.882
- OD of bound phage ([8]; phage dilution 1:100): 0.844
- OD of bound phage ([8]; phage dilution 1:1000): 0.480
- binding of phage to α-synuclein by ELISA ([8]; phage expressing the sequence): particularly strong binding

Compound: THIHHPS (listed as Homo sapiens)
- relative binding properties [7]: stronger binding properties
- binding to the NAC portion of α-synuclein [7]: bind

Compound: THRLPSR (listed as Homo sapiens)
- relative binding properties ([6]; C-terminal portion binder): stronger binding properties
- binding to the C-terminal portion of α-synuclein [6]: bind

Compound: TKHGPRK (listed as Homo sapiens)
- binding to the C-terminal portion of α-synuclein [6]: bind

Compound: WPFHHHR (listed as Homo sapiens)
- binding to the NAC portion of α-synuclein [7]: bind

Compound: WRQTRKD (listed as Homo sapiens)
- binding to the C-terminal portion of α-synuclein [6]: bind
